Results from patent US20230091510A1, “ANTIBODY DRUG CONJUGATES HAVING LINKERS COMPRISING HYDROPHILIC GROUPS” (priority 2019, published 2023).
Where a SMILES comes first, the peptide text is derived from it. [ ]: non-standard residue; d: D form. The star is where a group is joined. Dolaproine = CO[C@@H]([C@@H]1CCCN1)[C@@H](C)C(=O)O; Dil = CC[C@H](C)[C@H](NC)[C@@H](CC(=O)O)OC; X1 = C[C@@H](N*)[C@@H](O)c1ccccc1; NMeV = CN[C@H](C(=O)O)C(C)C

B1: P-Cad mab2-L1-P1 (antibody, V domains shown)
VH: QVQLQQSGPGLVKPSQTLSLTCAISGDSVSSQSAAWNWIRQSPSRGLEWLGRIYYRSKWYNDYALSVKSRITINPDTSKNQFSLQLNSVTPEDTAVYYCARGEGYGREGFAIWGQGTLVTVSS
VL: DIQMTQSPSSLSASVGDRVTITCRASQTISNTLAWYQQKPGKAPKLLIYAASNLQSGVPSRFSGSGSGTDFTLTISSLQPEDFATYYCQQYLSWFTFGQGTKVEIK
modifications: maleimide linker-drug L1-P1 on engineered Cys residues of the constant regions (positions not stated), DAR 3.8
B2: P-Cad mab2-L3-P1 (antibody, V domains shown)
VH: B1 VH
VL: B1 VL
modifications: maleimide linker-drug L3-P1 on engineered Cys residues of the constant regions (positions not stated), DAR 4.0
B3: PCAD-mab2-L7-P2 (antibody, V domains shown)
VH: B1 VH
VL: B1 VL
modifications: linker-drug L7-P2 (structure and conjugation not described in the filing)
B4: P-Cad mab2-L2-P1 (antibody, V domains shown)
VH: B1 VH
VL: B1 VL
modifications: maleimide linker-drug L2-P1 on engineered Cys residues of the constant regions (positions not stated), DAR 3.9
B5: P-Cad mab2-L6-P1 (antibody, V domains shown)
VH: B1 VH
VL: B1 VL
modifications: maleimide linker-drug L6-P1 on engineered Cys residues of the constant regions (positions not stated), DAR 3.8
B6: P-Cad mab2-L5-P1 (antibody, V domains shown)
VH: B1 VH
VL: B1 VL
modifications: maleimide linker-drug L5-P1 on engineered Cys residues of the constant regions (positions not stated), DAR 3.7
B7: P-Cad mab2-L4-P1 (antibody, V domains shown)
VH: B1 VH
VL: B1 VL
modifications: maleimide linker-drug L4-P1 on engineered Cys residues of the constant regions (positions not stated), DAR 3.9

What was measured:
[1] = system: FaDu cells; test: CellTiter-Glo inhibition of cell proliferation and survival, FaDu; type: cell-based, human; conditions: FaDu cell line
Experimental: (§1) The antibody drug conjugates were tested against four endogenous cancer cell lines and one isogenic cell line engineered to overexpress the target of interest. FaDu (ATCC No. HTB-43 cultured in Eagle's Minimum Essential Medium+10% FBS), HCC70 (ATCC No. CRL-2315 cultured in RPMI-1640+10% FBS), HCC1954 (ATCC No. CRL-2338 cultured in RPMI-1640+10% FBS) and HT-29 (ATCC No. HTB-38 cultured in McCoy's 5a Medium Modified+10% FBS). The HT-29 cell line was transfected to generate a stable HT-29 cell line expressing the exogenous protein of interest, P-cadherin, HT-29 PCAD+(cultured in McCoy's 5a Medium Modified+10% FBS).
(§2) The ability of the P-cadherin linker variant antibody drug conjugates to inhibit cell proliferation and survival was assessed using the Promega CellTiter-Glo® proliferation assay.
(§3) The cell lines were cultured in media that is optimal for their growth at 5% CO2, 37° C. in a tissue culture incubator. […] Cell viability and cell density were determined using a cell counter (Vi-Cell XR Cell Viability Analyzer, Beckman Coulter). […] Plates were incubated at 5% CO2, 37° C. for 5 days in a tissue culture incubator, after which cell viability was assessed through the addition of 25 μL of CellTiter Glo® (Promega, cat #G7573), a reagent which lyses cells and measures total adenosine triphosphate (ATP) content. […]

[2] = system: HCC70 cells; test: CellTiter-Glo inhibition of cell proliferation and survival, HCC70; type: cell-based, human; conditions: HCC-70 cell line
Experimental: as §1, §2, §3

[3] = system: HT-29 cells; test: CellTiter-Glo inhibition of cell proliferation and survival, HT-29; type: cell-based, human; conditions: HT-29 cell line
Experimental: as §1, §2, §3

[4] = system: HCC1954 cells; test: CellTiter-Glo inhibition of cell proliferation and survival, HCC1954; type: cell-based, human; conditions: HCC-1954 cell line
Experimental: as §1, §2, §3

[5] = molecular target: P-cadherin, exogenous, stably expressed on HT-29 PCAD+ cells (UniProt P22223 108-829, limits assumed); test: cell-based or functional assay
Sequence of P-cadherin, exogenous, stably expressed on HT-29 PCAD+ cells (P22223 108-829 limits assumed): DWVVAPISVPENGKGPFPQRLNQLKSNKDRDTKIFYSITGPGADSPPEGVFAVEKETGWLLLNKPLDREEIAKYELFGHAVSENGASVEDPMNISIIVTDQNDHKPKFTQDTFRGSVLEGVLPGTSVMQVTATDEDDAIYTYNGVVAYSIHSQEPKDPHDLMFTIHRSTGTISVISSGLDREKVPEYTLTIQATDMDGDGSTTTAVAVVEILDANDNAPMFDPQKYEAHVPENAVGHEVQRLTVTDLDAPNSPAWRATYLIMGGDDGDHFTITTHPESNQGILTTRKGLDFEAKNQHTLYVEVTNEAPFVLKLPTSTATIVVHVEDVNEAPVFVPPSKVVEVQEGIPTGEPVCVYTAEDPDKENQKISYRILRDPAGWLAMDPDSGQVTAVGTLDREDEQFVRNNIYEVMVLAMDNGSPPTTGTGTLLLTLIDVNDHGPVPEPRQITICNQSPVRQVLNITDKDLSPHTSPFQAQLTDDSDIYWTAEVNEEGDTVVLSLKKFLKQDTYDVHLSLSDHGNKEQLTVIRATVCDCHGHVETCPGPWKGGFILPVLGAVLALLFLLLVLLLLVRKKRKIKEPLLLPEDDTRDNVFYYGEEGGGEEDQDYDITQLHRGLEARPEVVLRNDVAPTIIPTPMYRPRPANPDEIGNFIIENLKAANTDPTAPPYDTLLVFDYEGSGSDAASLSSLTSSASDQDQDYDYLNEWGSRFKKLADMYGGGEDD

[6] = molecular target: P-cadherin, endogenous, on HCC70 human triple negative breast cancer cells (human, UniProt P22223 108-829); test: cell-based or functional assay
Sequence of P-cadherin, endogenous, on HCC70 human triple negative breast cancer cells (P22223 108-829): as the sequence (P22223 108-829 limits assumed) above

[7] = value from an individual representative assay

Molecule	Amax [1]	IC50 [1, 7]	Amax [2]	IC50 [2, 7]	Amax [3]	IC50 [3, 7]	Amax [4]	IC50 [4, 7]	Amax, inhibition of cell proliferation and survival (CellTiter-Glo, 5 days), HT-29 PCAD+ cells [5]	IC50 (nM), inhibition of cell proliferation and survival (CellTiter-Glo, 5 days), HT-29 PCAD+ cells [5]	Amax, inhibition of cell proliferation and survival (CellTiter-Glo, 5 days), HCC70 cells [6]	IC50 (nM), inhibition of cell proliferation and survival (CellTiter-Glo, 5 days), HCC70 cells [6]
CC[C@H](C)[C@@H]([C@@H](CC(=O)N1CCC[C@H]1[C@H](OC)[C@@H](C)C(=O)N[C@H](C)[C@@H](O)c1ccccc1)OC)N(C)C(=O)[C@@H](NC(=O)[C@@H](NC)C(C)C)C(C)C [Free MMAE, monomethyl auristatin E, reference compound] (H-[NMeV]V[Dil][Dolaproine]-X1)	108.80	0.032 nM	49.22	0.022 nM	102.30	0.012 nM	65.26	0.056 nM				
B1									90	0.077 nM	65.1	0.237 nM
B2									86.8	0.083 nM	105	1.35 nM
B3											171	0.004 nM
B4									83.9	0.098 nM	51	0.336 nM
B5									102	0.069 nM	80.2	0.209 nM
B6									91.6	0.075 nM	65.9	0.32 nM
B7									86.2	0.117 nM	57.2	0.467 nM
